# Data from the RNAGym collection of RNA variant scans (doi:10.1073/pnas.2313332121).
# Variants at the floor of the assay were thinned out.
# B1: TPR 5TU (parent)
# chain: GGAUCUUCUCGAUCUAACAAAAAAGACAAAUCUGCCACAAAGCUUGAGAGCAUCUUCGGAUGCAGAGGCGGCAGCCUUCGGUGGCGCGAUAGCGCCAACGUUCUCAACUAUGACACGCAAAACGCGUGCUCCGUUGAAUGGAGUUUAUCAUG
# Variants of: B1
# Assay: polymerase ribozyme fitness, log enrichment relative to wild type (log ratio); higher = more active; in vitro selection for triplet polymerase activity
# In short: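 Only genotypes with ≥10 input reads and ≥1 read per output were kept after Illumina sequencing of input and output libraries. These libraries were PCR-built, transcribed mutants of each subunit of a heterodimeric triplet polymerase ribozyme, each put through one triplicate in vitro selection round with frozen incubation at −7 °C, gel excision of extended constructs, streptavidin-bead capture and RT-PCR. Fitness is a logarithmic ratio of genotype enrichment to wild-type enrichment, from inverse-variance-weighted replicate averages, with the logarithm in base 2.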
row,Variant,polymerase ribozyme fitness (log ratio)
1,C38U A39C C95U,-2.34
2,C38U G126U,-0.118
3,C38A U53A C87U,-1.39
4,A37U G50C U78C A98U U134C,≤ -4.2
5,C38A C87U A107U,-4.17
6,A37C G80A G86A,-2.42
7,A39U C99A,-3.7
8,C38G A66G U77G G83U A107U G128C A137U,≤ -4.2
9,C38A C76U,-0.21
10,C38U C95A C103U G143A,-3.18
11,C38U C105G G141U,-1.54
12,A39G U55A C75G C87U A89U C99U C116U A142U,≤ -4.2
13,A39G C87A C108U U135C,≤ -4.2
14,A37G C69G,-0.726
15,C38U U61G C85A G94C C123A,-1.29
16,A39G A115C,-3.17
17,A39C A142U,-3.34
18,A37G C54U G59C C69U,-1.86
19,A39C G68A A89G G128U A138G,≤ -4.2
20,A37C A41U A52C C118A,-3.42
21,A37C A40G C57U A73C C93U,≤ -4.2
22,C36U C51G C76G G81C A107G G143A,≤ -4.2
23,C36U A40G C108G G140A,≤ -4.2
24,A37U A60U C75U C96A U111A,≤ -4.2

row,Variant,polymerase ribozyme fitness (log ratio)
1,A39C G94A,-2.88
2,A39U A52G C79G G84C C108U,≤ -4.2
3,A37G G48C A52C U56A C79A U104A U109A C116G C149G G152A,≤ -4.2
4,A39C C57G A89U A97G,-3.41
5,C36U A52U,-1.56
6,A37U U61A C85U U134A,-3.78
7,A37C C54U C96U,-0.249
8,C38A U90A G92A C103G G117U A138G,≤ -4.2
9,C38A C69A G133C A150C,≤ -4.2
10,C38U C76U C85G C96A C103A C114U C132U,-4.19
11,A37U A52C C116G,-2.94
12,C38U C96A G141A,-0.0442
13,A39G U109C U144A,-3.59
14,A39U A113C,-4.11
15,C38U A73G C103A,-3.99
16,A37U C72A C95U,≤ -4.2
17,A37C C108G,≤ -4.2
18,A39C A41C G65A C96A C103A U111G,≤ -4.2
19,A37C C43U G68U A73C C79G C95U U148G,≤ -4.2
20,A39G A47C C72A C103G C116U G128A,≤ -4.2
21,C38U A47U C54A A73G U78A A91U C114A A115U C116U G136C U146G,≤ -4.2
22,A39C A40G A49C G80U G86U A106C A150C,≤ -4.2
23,C38G G86U C118U,-2
24,C38A A60U G84A U134C,-1.6

row,Variant,polymerase ribozyme fitness (log ratio)
1,A39G C96U C116U,-1.75
2,A37G C72U A97G U102G C118U,≤ -4.2
3,A37U C114U A115G A120U,-3.83
4,A37C A52G,-0.00493
5,C38U A41C C132U,-1.49
6,A37C G92U,-0.276
7,A37C A40C G58U G94A A97U G143C,≤ -4.2
8,A37G A52G C69A U144G,-4.11
9,A37G C51U,-2.54
10,A37C G86U C87U C108U A113G G117A,≤ -4.2
11,A39U A40C C79A U82C C96A U109G A119U G143A,≤ -4.2
12,C38U G117U,0.325
13,A39U C103G,-4.14
14,A37G A41C U53C C85U U104C G128C C149G,≤ -4.2
15,C36U U53A A119G,-1.17
16,C38U C95G A120U G152A,-3.59
17,A37G A47G U101C,-2.53
18,A39G A52U U56A C75U U78G U104A U144C,≤ -4.2
19,A37C C96U,-1.09
20,C36U C103G,-3.78
21,A37C C69G G70A C116A,-3.56
22,A37U A52U C57U G74A C76U C93U C95U U109G,≤ -4.2
23,A39G G42C A64U G84C C85U C103G C108U G117C A147G,≤ -4.2
24,C36U A49U U82A A107C G133C,≤ -4.2

row,Variant,polymerase ribozyme fitness (log ratio)
1,A37C U55A C72U G88C A98G C103G U127C U134A,≤ -4.2
2,A37U A64C U135C,≤ -4.2
3,C38A A66G G70A,≤ -4.2
4,C38U G71A G81A G83U C93A,≤ -4.2
5,A37U A40C G68C G86U C95U G136A A137C,≤ -4.2
6,A37C G86C,-3.09
7,C38U C149U,-2.71
8,C38A C51U C95A C131A,-3.34
9,C36U C54A G68A G71A C95G A115U A122G,≤ -4.2
10,A37C A41C C72A C93U C125U,≤ -4.2
11,A37U A60G A91G G143C,≤ -4.2
12,C38U A47C C93A C125U,-3.16
13,C38U G58A G86A C93U C96A C131A,-2.97
14,A37U A39G A49U G81C A91C G94A U146A,≤ -4.2
15,C38G U44A G65C,≤ -4.2
16,C38U A120U A142U,-0.329
17,C38U U55A G59C U135C,-1.98
18,A39G C96U,-2.18
19,C38A G58A A60G C93U C95A C125G,-3.67
20,C36U A47G G68C G133C,≤ -4.2
21,C38U G65C G70U C85G U111G A115U U127G G140C U146G,≤ -4.2
22,A37U A113U C116U G136C,≤ -4.2
23,C38U G59C G81C C95G C116G,-1.71
24,C38U C57G G58A C116A A138G,≤ -4.2

row,Variant,polymerase ribozyme fitness (log ratio)
1,A39C C105U G124A,-2.08
2,A37C G83A,-0.102
3,A37C C57G C76G A98G A138C G140U,-3.42
4,A39G G83A G117U A120C G152U,-4.11
5,C36U A107G U151A,≤ -4.2
6,A39U G126C,-0.865
7,C38A U61A C96G,-2.38
8,C38U A49C A66G A138U U144C,≤ -4.2
9,C38U,0.0316
10,C38G,-0.296
11,C38A,-0.151
12,C36U A60G C87A G88C G141C,≤ -4.2
13,A37C A49C G81A G92C A106G C108A A115U A137U G143U,≤ -4.2
14,C38U G46U G84A U127G G143C,≤ -4.2
15,C36U A66C C69A U78G,≤ -4.2
16,C38A G50C C96A,-4.12
17,C36U G81A C95G C96A C99U C149G,≤ -4.2
18,A37U A89U U146A,-1.62
19,C38U A52C A120U,-1.22
20,A39U G141U,-1.56
21,C38U G42A C75G A91G C95U C105U A113U C118G,≤ -4.2
22,A39G A49G G70A C87A G94A C99G G126A,≤ -4.2
23,C38U U45A U55C U101G,≤ -4.2
24,A37G C57G A97G,-2.57

row,Variant,polymerase ribozyme fitness (log ratio)
1,A39U A40U C54U G84C C85A G92C G128A,≤ -4.2
2,C36U C96U A142C,-2.88
3,C36U A142C,-2.05
4,C38G A49C C76G C93U C125A U135A G143C U144A,≤ -4.2
5,C38G C75G G84C C103A,≤ -4.2
6,C38G C96A C114U,-2.91
7,C38G G92C C95U,-1.62
8,A37C G86U A120U U146G,-3.9
9,A37G G50U A97C A137G,-3.75
10,C38U U53A,-1.72
11,C38A C93A G136A,-1.47
12,C38G C95A A150U,-0.802
13,C36U A64G G94A A110G,-4.2
14,C38U U82A U144A C149G,≤ -4.2
15,C36U C114U,-3.21
16,A39U A91U,≤ -4.2
17,A39G U55G G83C G88C G100C G140U G141A U145G,≤ -4.2
18,C38U A52G A110C,≤ -4.2
19,A37G C54U,-2.05
20,A39C G80U C114U,≤ -4.2
21,C38A U56A A137G,-2.08
22,A39G A49U U55A U56A A91U,≤ -4.2
23,C38A U109A C114U C116G,≤ -4.2
24,C38G C85A G94U C103G,-2.31

row,Variant,polymerase ribozyme fitness (log ratio)
1,A39G C99G C108U,≤ -4.2
2,A37G A40U A115G A142U,≤ -4.2
3,C36U G143A,-2.3
4,C38U C57G C75U G86A U148A,≤ -4.2
5,A37C G70C C87A C125U,≤ -4.2
6,A39G C54U C85U,-1.83
7,C36U G92C,-1.37
8,C38U C95G,-1.3
9,A39C C87U,-2.12
10,C38G C57A A115C U144G,-1.02
11,A39U U53A,-2.91
12,A37C C63G C99A U111C C114U A119U,≤ -4.2
13,C38A U44A A47U G86U C87G G100A A107G C118U,≤ -4.2
14,A37C C87U,-0.492
15,A39C G86U,-4.18
16,C38U C63U A73G C118U A150G,-2.88
17,A37U G42C,-3.9
18,C38U C54A C57G G143A,-4.08
19,C38A C95G C99U A138G,≤ -4.2
20,A37U C51U A97C,-2.02
21,A37C A52G U82C C85G C95U C105U A142C A150G,≤ -4.2
22,A37C A52C U53A G92A,≤ -4.2
23,A39G A47C,-1.49
